In the assay the target is TM-JM peptide of EGFR labelled at the N-terminus with Cy3 or Cy5. Description: FRET or BRET.

On to “TM-JM peptide of EGFR labelled at the N-terminus with Cy3 or Cy5”, for which the percent of peptide dimers with a high FRET efficiency state in the trajectories came to 95%.

(Values after publication doi:10.1101/197673.)
